{"source": "paper PMC3102065", "about": "“The Hexameric Structures of Human Heat Shock Protein 90” (PLoS ONE, 2011)", "proteins": {"B1": {"name": "MC-HSP90 W320A (domain or fragment)", "chain": "not shown", "notes": "two extra Ala residues encoded after the Factor Xa cleavage site (made on the plasmid pGEX-6p-1-MC-HSP90); human heat shock protein 90α, residues 293-732, with W320A; also called mutant W320A; mutant protein W320A of MC-HSP90; source: E. coli BL21 (DE3), expressed and purified as the wild-type MC-HSP90; not shown: GST, N-terminal, cleaved"}, "B2": {"name": "MC-HSP90-Ct (human HSP90α residues 293–697, C-terminal 35 residues also truncated) (domain or fragment)", "chain": "not shown", "notes": "two extra Ala residues encoded after the Factor Xa cleavage site (same forward primer as MC-HSP90); human heat shock protein 90α, residues 293-697; Purified by a protocol similar to that of MC-HSP90; The reverse primer printed for this construct appears to encode eight His; also called C-terminal tail truncated MC-HSP90-Ct; source: E. coli BL21 (DE3), purified (Ni-NTA, Factor Xa cleavage, second …)"}, "B3": {"name": "MC-HSP90 (N-terminal truncated human HSP90α, middle segment and carboxy-terminal domain, residues 293–732) (domain or fragment)", "chain": "not shown", "notes": "two extra Ala residues encoded after the Factor Xa cleavage site; found at the N-terminus by MALDI-MS of the dissolved crystal; human heat shock protein 90α, residues 293-732 (M and C domains), from a full length cDNA (NM_005348.2; 732 residues); In solution a mixture of dimer, tetramer and hexamer; The reverse primer encodes six His after the last residue; also called truncated HSP90; wild-type …"}}, "key": {"[1]": {"target": "the molecule itself", "experiment": "AUC; sedimentation velocity of fractions from the S-300 column, 0.3 mg/ml in 100 mM Tris-HCl, 45,000 rpm, 20°C, c(s) distribution (SEDFIT)"}, "[2]": {"target": "the molecule itself", "experiment": "crystal structure; MC-HSP90-Ct, P6_322 crystal; 2.6 M ammonium sulfate, 0.1 M tri-sodium citrate pH 5.0, Silver Bullets No. 70; molecular replacement"}, "[3]": {"target": "the molecule itself", "experiment": "crystal structure; MC-HSP90 in three crystal forms (C222_1 with cis-DEP, P2_1 with cisplatin, R32 with Silver Bullets No. 18); 2.5 M ammonium sulfate, 0.1 M tri-sodium citrate pH 5.4-5.8; molecular replacement"}}, "note": "“And” between values parts separate entries of the source, which are not always exact repeats. Identical values can stand only once."}
{"protein": "B1", "values": [{"measurement": "stoichiometry N", "setting": "[1]", "result": "6 and 2 and 4"}]}
{"protein": "B2", "values": [{"measurement": "stoichiometry N", "setting": "[2]", "result": 6}]}
{"protein": "B3", "values": [{"measurement": "stoichiometry N", "setting": "[1]", "result": "2 and 4"}, {"measurement": "stoichiometry N", "setting": "[3]", "result": 6}]}
